Experimental data as given in US20160009772A1, “CELL PENETRATING PEPTIDES WHICH BIND IRF5” (priority 2012, published 2016).

molecular target: Wild type IRF5 (222-467) (human) (UniProt Q13568); experiment: TR-FRET IRF5 dimerization inhibition, WT (222-467), peptide titrated

Binder | IC50 [nM]
Ac-MIILIISFPKHKDWKVILVK-NH2 [Ac-…-NH2 (SEQ ID NO: 14)] | 18600
Ac-YLKFIPLKRAIWLIK-NH2 [Ac-…-NH2 (SEQ ID NO: 23), control CPP designed not to bind IRF5] | > 75000
Ac-IRLQISNPDLKDLMVQWFKDGGPSSGAPPPS-NH2 [Ac-…-NH2 (SEQ ID NO: 9)] | 1400
XMIILIISFPKHKDWKVILVK (N-terminal FITC-Aha (fluorescein isothiocyanate on amino hexanoic acid), C-terminal amide (NH2)) [FITC-Aha-…-NH2 (SEQ ID NO: 17)] | 5300
Ac-KDLMVQWFKDGGPSSGAPPPS-NH2 [Ac-…-NH2 (SEQ ID NO: 8)] | 790
Ac-PFPPLPIGEEAPKDDMVRFFKDLHQYLNVV-NH2 [Ac-…-NH2 (SEQ ID NO: 10)] | 350
XIRLQISNPYLKFIPLKRAIWLIK (N-terminal FITC-Aha (fluorescein isothiocyanate on amino hexanoic acid), C-terminal amide (NH2)) [FITC-Aha-…-NH2 (SEQ ID NO: 16)] | 46500

molecular target: IRF5(222-467, S430D), S430D phosphomimetic construct of IRF5 (222-467) (human), Q13568; experiment: not given
Sequence (Q13568 232-477 S440D limits assumed): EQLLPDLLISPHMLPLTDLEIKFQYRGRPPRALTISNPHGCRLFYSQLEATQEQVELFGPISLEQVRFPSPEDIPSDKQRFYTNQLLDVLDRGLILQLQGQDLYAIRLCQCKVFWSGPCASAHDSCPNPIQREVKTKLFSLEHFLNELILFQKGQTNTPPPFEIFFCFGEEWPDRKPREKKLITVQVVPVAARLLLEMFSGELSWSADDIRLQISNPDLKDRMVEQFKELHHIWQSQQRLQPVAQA

Binder | IC50 [nM]
Ac-KDLMVQWFKDGGPSSGAPPPS-NH2 [Ac-…-NH2 (SEQ ID NO: 8)] | 1680
